Drawing on publication PMC2895659, this text covers reduction of luciferase reporter virus infection of Lunet N hCD81 cells after preincubation with 10 µg/ml hCD81 LEL for 1 substance.

The target of experiment [1] is E1/E2 glycoprotein complex of Jc1/mCD81 (Jc1 carrying L216F, V388G and M405T) on HCV particles (hepatitis C virus genotype 2a (J6CF)) (UniProt P26660).
Experiment [2] has as its target E1/E2 glycoprotein complex of Jc1/G451R (Jc1 with a single G451R mutation within E2) on HCV particles (hepatitis C virus genotype 2a (J6CF)) (UniProt P26660).

“recombinant fusion protein between GST and the human CD81 large extracellular loop (LEL) (domain or fragment)”: the reduction of luciferase reporter virus infection of Lunet N hCD81 cells after preincubation with 10 µg/ml hCD81 LEL in experiment [1] and in experiment [2] was greater than 10 fold in each case.
